The values below come from US5840867.

One may read the Kd as the concentration at which binding is half-saturated.

Where two headings read alike, the source gives them in different places.

In one data set the target is T1, ovalbumin (UniProt P01012).
T1 sequence: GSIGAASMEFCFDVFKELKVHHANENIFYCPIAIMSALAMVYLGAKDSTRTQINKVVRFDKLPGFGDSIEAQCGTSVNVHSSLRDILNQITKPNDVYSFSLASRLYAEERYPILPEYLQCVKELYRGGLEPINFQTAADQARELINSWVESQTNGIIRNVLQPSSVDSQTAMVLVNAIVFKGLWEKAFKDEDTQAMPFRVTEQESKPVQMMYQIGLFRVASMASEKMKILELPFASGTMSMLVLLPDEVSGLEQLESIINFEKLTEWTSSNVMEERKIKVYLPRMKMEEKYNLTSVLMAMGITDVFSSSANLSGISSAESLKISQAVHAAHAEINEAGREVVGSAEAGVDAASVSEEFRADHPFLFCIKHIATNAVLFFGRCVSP
Put plainly: filter. The settings on record: 60 pmol ovalbumin; DNA alone 0.07%.

The target in another data set is thrombin (Homo sapiens?) (UniProt P00734+P00734). Put plainly: filter.
The target in data set [1] is bradykinin (peptide, thiopropyl-derivatised on Sepharose for selection) (UniProt P01042). As to conditions: method not stated, cited from earlier work.
bradykinin (peptide, thiopropyl-derivatised on Sepharose for selection), sequence (P01042 whole entry, looked up, tested part not stated): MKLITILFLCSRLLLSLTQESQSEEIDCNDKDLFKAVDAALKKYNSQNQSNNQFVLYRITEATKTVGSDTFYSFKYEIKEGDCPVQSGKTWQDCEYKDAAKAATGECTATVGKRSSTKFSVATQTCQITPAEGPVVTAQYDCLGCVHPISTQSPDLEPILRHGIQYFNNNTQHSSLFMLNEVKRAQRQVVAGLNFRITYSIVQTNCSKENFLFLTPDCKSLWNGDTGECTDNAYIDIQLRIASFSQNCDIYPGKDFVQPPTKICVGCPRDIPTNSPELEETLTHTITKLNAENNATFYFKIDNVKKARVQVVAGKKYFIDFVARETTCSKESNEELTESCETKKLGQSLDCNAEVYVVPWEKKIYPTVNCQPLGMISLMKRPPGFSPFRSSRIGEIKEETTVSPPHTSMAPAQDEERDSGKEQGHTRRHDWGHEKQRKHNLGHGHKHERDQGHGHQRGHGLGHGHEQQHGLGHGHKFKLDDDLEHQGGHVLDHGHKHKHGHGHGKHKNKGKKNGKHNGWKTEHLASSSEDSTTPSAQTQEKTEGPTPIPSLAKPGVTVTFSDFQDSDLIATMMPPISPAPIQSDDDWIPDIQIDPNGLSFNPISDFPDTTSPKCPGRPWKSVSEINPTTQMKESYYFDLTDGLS

Consider “CGTACGGTCGACGCTAGCNNNNNNNNNNNNNNNNNNNNNNNNNNNNNNNNNNNNNNNNNNNNNNNNNNNNNNNNNNNNCACGTGGAGCTCGGATCC [Round 5 thrombin aptamer pool (96-mer)]”, for which the binding signal with ovalbumin is 0.05 % DNA bound; with thrombin (60 pmol thrombin, 3.5 pmol DNA in 200 uL selection buffer, RT 1 h, DNA alone 0.07%), 20.4 % DNA bound.

The sequence “CGTACGGTCGACGCTAGCNNNNNNNNNNNNNNNNNNNNNNNNNNNNNNNNNNNNNNNNNNNNNNNNNNNNNNNNNNNNCACGTGGAGCTCGGATCC [unselected 96-mer pool]” displayed a binding signal with thrombin (unselected DNA, DNA alone 0.08%) of 0.06 % DNA bound. Further, in data set [1] (unselected DNA), the Kd was more than 1000 µM.

Consider “CGTACGGTCGACGCTAGCNNNNNNNNNNNNNNNNNNNNNNNNNNNNNNNNNNNNNNNNNNNNNNNNNNNNNNNNNNNNCACGTGGAGCTCGGATCC [Round 5 bradykinin aptamer pool]”, for which, in data set [1] (pool), the Kd was 50 µM.
